These results are taken from US20240376195A1 (BEIGENE, published 2024).

One experiment concerns the target T1, T119A.
T1 construct: single alanine mutant; also called mutant Nkp30-Fc T119A
T1 Fc fusion chain: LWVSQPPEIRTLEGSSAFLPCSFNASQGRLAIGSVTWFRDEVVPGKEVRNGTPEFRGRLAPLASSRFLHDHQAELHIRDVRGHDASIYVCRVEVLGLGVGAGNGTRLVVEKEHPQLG
Nature of the experiment: ELISA; 50 ng Nkp30-Fc variant coated, antibody at 20 nM, HRP-linked secondary antibody; signal relative to wild type. The method, then: (§1) To characterize the binding epitope of BGA1833, 10 amino acid residues of NKp30 were mutated to alanine individually to generate 10 single-mutation NKp30 variants based upon the information from the crystal structure of NKp30 reported previously (Li et al., J Exp Med. 2011 208:703-714). The mutant NKp30 proteins along with the wild-type NKp30 protein were analyzed for their recognition and binding by BGA1833. Another humanized anti-NKp30 antibody, BGA1913, was also analyzed in the same ELISA assay for comparison. In this assay, 50 ng each of wild-type or mutant Nkp30-Fc was coated in an ELISA plate. After blocking, 100 μl of BGA1833 or BGA1913 antibody at a concentration of 20 nM was added to the plate and the binding signal of each antibody was detected by HRP-linked secondary antibody. All ELISA results were normalized using the mean values of the ELISA reading of wild type NKp30-Fc binding signal as the standard. To simplify data analysis, if an antibody's ELISA binding signal for a specific mutant NKp30 dropped to or below 25%, then the amino acid at that site was considered critical to the epitope.
A general note: An ELISA detects its analyte on a solid surface through an enzyme-linked reagent.

The next experiment deals with T2, V117A.
T2 construct: single alanine mutant; also called mutant Nkp30-Fc V117A
T2 Fc fusion chain: T1 Fc fusion chain with V99A, A101T
The description is as above. The method, then: as §1

The next experiment deals with T3, R109A.
T3 construct: single alanine mutant; also called mutant Nkp30-Fc R109A
T3 Fc fusion chain: T1 Fc fusion chain with R91A, A101T
The experiment is described as above. The method, then:
as §1

The next experiment concerns the target T4, E65A.
T4 construct: single alanine mutant; also called mutant Nkp30-Fc E65A
T4 Fc fusion chain: T1 Fc fusion chain with E47A, A101T
The description is as above. On the procedure: as §1

A further experiment concerns the target T5, K129A.
T5 construct: single alanine mutant; also called mutant Nkp30-Fc K129A
T5 Fc fusion chain: T1 Fc fusion chain with A101T, K111A
The description is as above. On the procedure: as §1

For another experiment, the target named is T6, W20A.
T6 construct: single alanine mutant; also called mutant Nkp30-Fc W20A
T6 Fc fusion chain: T1 Fc fusion chain with W2A, A101T
The experiment is described as above. The method, then:
as §1

A further experiment addresses T7, E111A.
T7 construct: single alanine mutant; also called mutant Nkp30-Fc E111A
T7 Fc fusion chain: T1 Fc fusion chain with E93A, A101T
Described as above. On the procedure: as §1

Another experiment concerns the target T8, S52A.
T8 construct: single alanine mutant; also called mutant Nkp30-Fc S52A
T8 Fc fusion chain: T1 Fc fusion chain with S34A, A101T
The description is as above. On the procedure:
as §1

In experiment [1] the target is T9, his-tagged human NKp30 (human, UniProt O14931 19-135).
T9 construct: Analyte of the SPR assay; not shown: his tag
T9 sequence: T1 Fc fusion chain with A101T
The experiment in a line: SPR, antibody captured on anti-human Fc surface; NKp30 analyte not named in Example 4. The source says: (§2) Further engineered versions of humanized monoclonal antibodies were derived from the mutation process described as above and characterized in detail. […] For affinity determination, antibodies were captured by anti-human Fc surface, and used in the affinity assay based on surface plasmon resonance (SPR) technology. All the humanization antibodies shown above were also confirmed for functional activities on primary human immune cells isolated from healthy donors (described in Example 7 below).
In general terms: SPR reads the build-up and loss of mass on a sensor chip optically.

For experiment [2], the target named is T10, full-length human NKp30 on NK92MI cells (human, UniProt O14931 19-201).
T10 construct: Full-length human NKp30 over-expressed on NK92MI cells; also called huNKp30; native NKp30
T10 sequence: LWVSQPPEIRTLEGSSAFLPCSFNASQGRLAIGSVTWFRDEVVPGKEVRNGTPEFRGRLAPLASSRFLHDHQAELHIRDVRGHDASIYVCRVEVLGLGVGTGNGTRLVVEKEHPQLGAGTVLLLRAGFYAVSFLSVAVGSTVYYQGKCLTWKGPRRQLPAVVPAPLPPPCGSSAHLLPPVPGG
Nature of the experiment: flow cytometry on live NK92MI cells over-expressing human NKp30, goat anti-human IgG detection. On the procedure:
To evaluate the binding activity of anti-NKp30 antibodies to native NKp30 on living cells, NK92MI cells were transfected to over-express human NKp30. Live NK92mi/NKp30 expressing cells were seeded in 96-well plates and were incubated with a serial dilution of anti-NKp30 antibodies. Goat anti-Human IgG was used as secondary antibody to detect antibody binding to the cell surface. EC₅₀ values for dose-dependent binding to human native NKp30 were determined by fitting the dose-response data to the four-parameter logistic model with GraphPad Prism™.
(In general: In flow cytometry, cells or beads pass a laser one at a time.)

Experiment [3] concerns the target T9, his-tagged human NKp30. The experiment in a line: SPR, antibody captured on anti-human Fc surface.
Text: as §2

Changes are numbered by the printed parent chain.

B1: BGA1833 (antibody, human IgG1, kappa)
heavy: QVQLVQSGAEVKKPGASVKVSCKASGYTFTSSYMHWVRQAPGQGLEWMGEIHPNRDNTNYNEKFKGRVTMTRDTSTSTVYMELSSLRSEDTAVYYCARSYYEYGGAYFDAWGQGTLVTVSSASTKGPSVFPLAPSSKSTSGGTAALGCLVKDYFPEPVTVSWNSGALTSGVHTFPAVLQSSGLYSLSSVVTVPSSSLGTQTYICNVNHKPSNTKVDKKVEPKSCDKTHTCPPCPAPPAAGPSVFLFPPKPKDTLMISRTPEVTCVVVDVSHEDPEVKFNWYVDGVEVHNAKTKPREEQYNSTYRVVSVLTVLHQDWLNGKEYKCKVSNKALAAPIEKTISKAKGQPREPQVYTLPPSRDELTKNQVSLTCLVKGFYPSDIAVEWESNGQPENNYKTTPPVLDSDGSFFLYSKLTVDKSRWQQGNVFSCSVMHEALHNHYTQKSLSLSPGK
light: QIQLTQSPSSLSASVGDRVTITCKASQDVSTAVAWYQQKPGKAPKLLIYAASYRHIGVPSRFSGSGSGTDFTLTISSLQPEDFATYYCQQHYSNPFTFGGGTKVEIKRTVAAPSVFIFPPSDEQLKSGTASVVCLLNNFYPREAKVQWKVDNALQSGNSQESVTEQDSKDSTYSLSSTLTLSKADYEKHKVYACEVTHQGLSSPVTKSFNRGEC
notes: also called BGA1833 (IgG1mf format)
For the molecule B1, the binding result with T119A, with V117A, in the experiment with R109A, in the experiment with E65A, in the experiment with K129A and in the experiment with W20A was “binds” in each case. Moreover, the binding result in the experiment with E111A and with S52A was “binds” in each case. Further, the Kd with his-tagged human NKp30 [1] amounted to 1.92 nM. The molecule further came in with a dissociation rate constant (koff) in the experiment with his-tagged human NKp30 [1] of 0.00278 s⁻¹. For the same molecule, the kon in the experiment with his-tagged human NKp30 [1] is 1.45e+06 M⁻¹ s⁻¹. This molecule also registered an EC50 in experiment [2] of 1.31 nM. In addition, in the experiment with his-tagged human NKp30 [3], the “fold lower affinity than the initial antibody” value was about 10 fold.

As usually defined, the Kd is a measure of binding affinity in units of concentration. Read a low Kd as a tighter complex. Broadly, the koff is a measure of how fast the partners let go of each other. What is called kon is the rate constant with which the complex forms. Low readings indicate slow association, high ones fast association. Broadly, the EC50 is the midpoint of the concentration-response curve. The low end stands for higher potency in that assay, the high end for lower potency in that assay.
